B1: mRNA-splicing (parent)
chain: AGUUGCUGCUGGGAGCUCCAGCACAGUGAAAUGGACAGAAGGGCAGAGCAA

Variants of: B1
Experiment: exon inclusion enrichment index; higher = more inclusion; WT1 exon 5 minigene, HEK293

| Variant | exon inclusion enrichment index |
| --- | --- |
| C6A U7C C9A U10C G12U G13U | 0.542 |
| C6A U7C C9A U10C G12U G13A | 1.25 |
| C6A U7C C9A U10C G15A C16U | 2.88 |
| C6A U7C C9A U10C G15A C16G | 2.11 |
| C6A U7C C9A U10C G15A C16A | 2.34 |
| C6A U7C C9A U10C A47G G48U | 0.925 |
| C6A U7C C9A U10C A47G G48C | 1.71 |
| C6A U7C C9A U10C A47G G48A | 2.43 |
| C6A U7C C9A U10C C19U | 0.759 |
| C6A U7C C9A U10C C19A | 2.55 |
| C6A U7C C9A U10C C19G | 3.61 |
| C6A U7C C9A U10C G11A | 1.84 |
| C6A U7C C9A U10C G11C | 3.61 |
| C6A U7C C9A U10C G11U | 3.07 |
| C6A U7C C9A U10C A25U G26A | 3.54 |
| C6A U7C C9A U10C A25U G26U | 2.49 |
| C6A U7C C9A U10C A25U G26C | 3.26 |
| C6A U7C C9A U10C A29C | 3.21 |
| C6A U7C C9A U10C A29G | 3.29 |
| C6A U7C C9A U10C A29U | 1.74 |
| C6A U7C C9A U10C A14C | 3.07 |

| Variant | exon inclusion enrichment index |
| --- | --- |
| C6A U7C C9A U10C A14U | 1.94 |
| C6A U7C C9A U10C A14G | 4.78 |
| C6A U7C C9A U10C A37C G38C | 3.1 |
| C6A U7C C9A U10C A37C G38A | 2.46 |
| C6A U7C C9A U10C A37C G38U | 2.3 |
| C6A U7C C9A U10C C18U C19G | 1.93 |
| C6A U7C C9A U10C C18U C19A | 0.757 |
| C6A U7C C9A U10C C18U C19U | 0.145 |
| C6A U7C C9A U10C G13C | 2.83 |
| C6A U7C C9A U10C G13U | 1.08 |
| C6A U7C C9A U10C G13A | 3.32 |
| C6A U7C C9A U10C C44G | 4.07 |
| C6A U7C C9A U10C C44U | 1.32 |
| C6A U7C C9A U10C C44A | 4.44 |
| C6A U7C C9A U10C A29G A30G | 3.23 |
| C6A U7C C9A U10C A29G A30C | 2.23 |
| C6A U7C C9A U10C A29G A30U | 1.72 |
| C6A U7C C9A U10C C18G C19A | 3.84 |
| C6A U7C C9A U10C C18G C19G | 3.85 |
| C6A U7C C9A U10C C18G C19U | 1.28 |
| C6A U7C C9A U10C A39U A40C | 3.44 |

| Variant | exon inclusion enrichment index |
| --- | --- |
| C6A U7C C9A U10C A39U A40U | 1.76 |
| C6A U7C C9A U10C A39U A40G | 1.39 |
| C6A U7C C9A U10C A35U C36A | 0.00835 |
| C6A U7C C9A U10C A35U C36U | 0.135 |
| C6A U7C C9A U10C A35U C36G | 0.375 |
| C6A U7C C9A U10C A47C | 3.27 |
| C6A U7C C9A U10C A47G | 0.844 |
| C6A U7C C9A U10C A47U | 2.86 |
| C6A U7C C9A U10C G12A G13C | 2.54 |
| C6A U7C C9A U10C G12A G13U | 1.08 |
| C6A U7C C9A U10C G12A G13A | 2.17 |
| C6A U7C | 0.264 |
| C6A U7C C9A U10C C16A U17C | 3.21 |
| C6A U7C C9A U10C C16A U17A | 3.43 |
| C6A U7C C9A U10C C16A U17G | 2.33 |
| C6A U7C C9A U10C C36A A37U | 2.17 |
| C6A U7C C9A U10C C36A A37C | 3.18 |
| C6A U7C C9A U10C C36A A37G | 1.73 |
| C6A U7C C9A U10C A30U | 2.51 |
| C6A U7C C9A U10C A30G | 3.61 |
| C6A U7C C9A U10C A30C | 3.29 |

| Variant | exon inclusion enrichment index |
| --- | --- |
| C6A U7C C9A U10C A20C G21C | 2.31 |
| C6A U7C C9A U10C A20C G21A | 2.38 |
| C6A U7C C9A U10C A20C G21U | 2.72 |
| C6A U7C C9A U10C G21A C22A | 2.06 |
| C6A U7C C9A U10C G21A C22G | 3.04 |
| C6A U7C C9A U10C G21A C22U | 2.22 |
| C6A U7C C9A U10C C24G A25U | 3.51 |
| C6A U7C C9A U10C C24G A25G | 2.34 |
| C6A U7C C9A U10C C24G A25C | 4.59 |
| C6A U7C C9A U10C A40C | 3.36 |
| C6A U7C C9A U10C A40U | 2.61 |
| C6A U7C C9A U10C A40G | 3.27 |
| C6A U7C C9A U10C C44G A45C | 4.25 |
| C6A U7C C9A U10C C44G A45U | 3.12 |
| C6A U7C C9A U10C C44G A45G | 1.29 |
| C6A U7C C9A U10C A14C G15C | 1.7 |
| C6A U7C C9A U10C A14C G15U | 2.32 |
| C6A U7C C9A U10C A14C G15A | 2.13 |
| C6A U7C C9A U10C A45C G46C | 2.21 |
| C6A U7C C9A U10C A45C G46U | 1.54 |
| C6A U7C C9A U10C A45C G46A | 1.88 |
